Reference: patent publication US20250277022A1 (STAIDSON BEIJING BIOPHARMACEUTICALS, published 2025)
Read-outs that look alike come from different tables or passages of the source.

Assays:
human TSLP [1] = target: T1, human TSLP (human, UniProt Q969D9 29-159); assay: ELISA, plate coated with human TSLP, test antibodies as human IgG1
T1 construct: used biotinylated in some assays; also called hTSLP; recombinant human TSLP
Method: (§1) ELISA Screening: Monoclonal scFv antibodies were selected and subjected to ligand binding assays. The first assay was designed to identify scFv antibodies that bound human TSLP and/or cynomolgus TSLP. Briefly, a 96-well plate was coated with human TSLP or cynomolgus TSLP in PBS at 0.1 μg/well and left overnight at 4° C. Before loading the scFv antibodies, the plates were washed with TBST, blocked for 1-2 hours at 37° C. using 5% milk and washed again with TBST. Each scFv sample was first diluted to 40 μg/mL, and 150 μL was added to the first row of wells. The 40 μg/mL scFv samples were then serially diluted at a 1:3 ratio and added to the remaining wells. After incubating for an hour at 37° C., followed by washing with TBST for 6 times, 100 μl of the secondary antibody (HRP labeled mouse anti-flag (1:2500)) was added to each well. After incubation for an hour under 37° C., the plate was washed for 3 times using TBST. TMB was then added at 100 μL/well and incubated for 10-20 minutes at 37° C. 2 M H₂SO₄ was used to stop the reaction. The ELISA results (OD405) were then analyzed and the binding curves were generated by PRISM.

human TSLP [2] = target: T1, human TSLP; assay: cell-based or functional assay
cynomolgus monkey TSLP [3] = target: T2, cynomolgus monkey TSLP (cynomolgus monkey, UniProt A0A7N9CAT7 29-159); assay: ELISA, plate coated with cynomolgus monkey TSLP, test antibodies as human IgG1
T2 construct: also called cynomolgus TSLP; recombinant cynomolgus monkey TSLP
Method: as §1

human TSLP [4] = target: T1, human TSLP; assay: cell-based or functional assay; remark: listed apart in the source
human TSLP [5] = target: T1, human TSLP; assay: ELISA, plate coated with human TSLP, test antibodies as human IgG1; remark: listed apart in the source
Method: as §1

human TSLP [6] = target: T1, human TSLP; assay: cell-based or functional assay; remark: listed apart in the source
TSLP-His = target: T3, TSLP-His (human, UniProt Q969D9 29-159, limits assumed); assay: HTRF competition: blocking of TSLP-his binding to HEK293-Flag-hTSLPR-IL7Ra cells, IgG1
T3 construct: also called his-tagged TSLP; not shown: His-tag

human TSLP [7] = target: T1, human TSLP; assay: ELISA, plate coated with human TSLP, test antibodies as human IgG1; remark: listed apart in the source
Method: as §1

human TSLP [8] = target: T1, human TSLP; assay: cell-based or functional assay; remark: listed apart in the source
cynomolgus monkey TSLP [9] = target: T2, cynomolgus monkey TSLP; assay: ELISA, plate coated with cynomolgus monkey TSLP, test antibodies as human IgG1; remark: listed apart in the source
Method: as §1

human TSLP [10] = target: T1, human TSLP; assay: ELISA, plate coated with human TSLP, test antibodies as human IgG1; remark: listed apart in the source
Method: as §1

cynomolgus monkey TSLP [11] = target: T2, cynomolgus monkey TSLP; assay: ELISA, plate coated with cynomolgus monkey TSLP, test antibodies as human IgG1; remark: listed apart in the source
Method: as §1

T2 sequence (A0A7N9CAT7 entry or part of it): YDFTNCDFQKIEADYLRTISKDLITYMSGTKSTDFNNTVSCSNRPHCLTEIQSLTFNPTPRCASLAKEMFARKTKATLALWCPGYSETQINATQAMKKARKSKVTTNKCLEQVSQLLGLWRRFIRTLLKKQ
T3 sequence (Q969D9 29-159 R127A/R130S limits assumed): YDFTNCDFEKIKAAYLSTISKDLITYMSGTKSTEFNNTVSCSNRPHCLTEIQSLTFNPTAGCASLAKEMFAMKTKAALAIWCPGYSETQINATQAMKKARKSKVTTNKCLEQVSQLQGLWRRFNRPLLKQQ
T1 sequence (Q969D9 29-159 R127A/R130S limits assumed): as above

Row | Binder | EC50 (read off the curve) (human TSLP [1]) [µg/mL] | IC50, inhibition of human TSLP-induced Stat5 activation (Stat5-luciferase reporter, Ba/F3 cells with hTSLPR and hIL7Ra) (human TSLP [2]) [µg/mL] | EC50 (read off the curve) (cynomolgus monkey TSLP [3]) [µg/mL] | IC50, inhibition of TSLP induced proliferation of Ba/F3-TSLPR-IL7Ra cells (CellTiter-Glo) (human TSLP [4]) [µg/mL] | EC50 (read off the curve) (human TSLP [5]) [µg/mL] | IC50, inhibition of human TSLP-induced Stat5 activation (Stat5-luciferase reporter, Ba/F3 cells with hTSLPR and hIL7Ra) (human TSLP [6]) [µg/mL] | other results
1 | TSLP-0101 (antibody, V domains shown) VH: QVQLQESGPGLVKPSETLSLTCAVSGYSISSGYGWSWIRQPPGKGLEWIGYISYYGSISYNPSLKSRVTISRDTSKNQFSLKLSSVTAADTAVYYCARTNLLYFDSWGQGTLVTVSS VL: not shown | ~0.03 | 0.0092 | ~0.7 | – | – | – | –
2 | TSLP-0110 (antibody, V domains shown) VH: QVQLQESGPGLVKPSETLSLTCAVSGYSISSGYGWSWIRQPPGKGLEWIGYISYYGSTSYNPSLKSRVTISRDTSKNQFSLKLSSVTAADTAVYYCARTNLLYFDSWGQGTLVTVSS VL: EIVMTQSPATLSLSPGERATLSCRASQSVSSYLAWYQQKPGQAPRLLIYDTSSRATGIPARFSGSGSGTDFTLTISSLEPEDFAVYYCQQYSNWPQYSFGQGTKVEIK | – | – | – | 0.129 | ~0.08 | 0.0245 | –
3 | TSLP-0102 (antibody, V domains shown) VH: QVQLQESGPGLVKPSETLSLTCTVSGYSISSGYGWSWIRQPPGKGLEWIGYISYYGSISYNPSLKSRVTISRDTSKNQFSLKLSSVTAADTAVYYCARTNLLYFDSWGQGTLVTVSS VL: EIVMTQSPATLSLSPGERATLSCRASQSVSNNLAWYQQKPGQAPRLLIYDASSRATGIPARFSGSGSGTDFTLTISSLEPEDFAVYYCQQYSDWPQYTFGQGTKVEIK | ~0.04 | 0.0114 | ~0.7 | – | – | – | –
4 | TSLP-0104 (antibody, V domains shown) VH: QVQLQESGPGLVKPSETLSLTCAVSGYSISSGYGWSWIRQPPGKGLEWIGYISYYGSISYNPSLKSRVTISVDTSKNQFSLKLSSVTAADTAVYYCARTNLLYFDSWGQGTLVTVSS VL: EIVMTQSPATLSLSPGERATLSCRASQSVSNNLAWYQQKPGQAPRLLIYDASSRATGIPARFSGSGSGTDFTLTISSLEPEDFAVYYCQQYSDWPQYTFGQGTKVEIK | ~0.04 | 0.0154 | ~0.7 | – | – | – | –
5 | TSLP-0108 (antibody, V domains shown) VH: QVQLQESGPGLVKPSETLSLTCAVSGYSISSGYGWSWIRQPPGKGLEWIGYISYYGSTSYNPSLKSRVTISRDTSKNQFSLKLSSVTAADTAVYYCARTNLLYFDSWGQGTLVTVSS VL: EIVMTQSPATLSLSPGERATLSCRASQSVSNNLAWYQQKPGQAPRLLIYDASSRATGIPARFSGSGSGTDFTLTISSLEPEDFAVYYCQQYSDWPEYSFGQGTKVEIK | – | – | – | 0.0394 | ~0.06 | 0.0108 | IC50 (TSLP-His): 0.158 µg/mL
6 | TSLP-0105 (antibody, V domains shown) VH: QVQLQESGPGLVKPSETLSLTCAVSGYSISSGYGWSWIRQPPGKGLEWIGYISYYGSISYNPSLKSRVTISVDTSKNQFSLKLSSVTAADTAVYYCARTNLLYFDSWGQGTLVTVSS VL: not shown | ~0.05 | 0.0182 | ~0.7 | – | – | – | –
7 | TSLP-0109 (antibody, V domains shown) VH: QVQLQESGPGLVKPSETLSLTCAVSGYSISSGYGWSWIRQPPGKGLEWIGYISYYGSTSYNPSLKSRVTISRDTSKNQFSLKLSSVTAADTAVYYCARTNLLYFESWGQGTLVTVSS VL: EIVMTQSPATLSLSPGERATLSCRASQGISSYLAWYQQKPGQAPRLLIYDASNLQSGIPARFSGSGSGTDFTLTISSLEPEDFAVYYCQQYSNWPQYSFGQGTKVEIK | – | – | – | 0.0304 | ~0.07 | 0.0228 | –
8 | TSLP-0111 (antibody, V domains shown) VH: QVQLQESGPGLVKPSETLSLTCAVSGYSISSGYGWSWIRQPPGKGLEWIGYFSYYGSTSYNPSLKSRVTISRDTSKNQFSLKLSSVTAADTAVYYCARTNLLYFDSWGQGTLVTVSS VL: EIVMTQSPATLSLSPGERATLSCRASQSVSSNLAWYQQKPGQAPRLLIYDASSRATGIPARFSGSGSGTDFTLTISSLEPEDFAVYYCQQYSNWPQYSFGQGTKVEIK | – | – | – | 0.244 | ~0.08 | 0.0438 | –
9 | TSLP-0106 (antibody, V domains shown) VH: QVQLQESGPGLVKPSETLSLTCTVSGYSISSGYGWSWIRQPPGKGLEWIGYISYYGSISYNPSLKSRVTISVDTSKNQFSLKLSSVTAADTAVYYCARTNLLYFDSWGQGTLVTVSS VL: EIVMTQSPATLSLSPGERATLSCRASQSVSNNLAWYQQKPGQAPRLLIYDASSRATGIPARFSGSGSGTDFTLTISSLEPEDFAVYYCQQYSDWPQYTFGQGTKVEIK | ~0.05 | 0.0169 | ~0.9 | – | – | – | –
10 | TSLP-0112 (antibody, V domains shown) VH: QVQLQESGPGLVKPSETLSLTCAVSGYSISSGYGWSWIRQPPGKGLEWIGYISYYGSTSYNPSLKSRVTISRDTSKNQFSLKLSSVTAADTAVYYCARTNLLYFDYWGQGTLVTVSS VL: EIVMTQSPATLSLSPGERATLSCRASQSVSSYLAWYQQKPGQAPRLLIYDASSRATGIPARFSGSGSGTDFTLTISSLEPEDFAVYYCQQYSDWPQYSFGQGTKVEIK | – | – | – | 0.214 | ~0.08 | 0.0308 | –
11 | TSLP-0201 (antibody, V domains shown) VH: QVQLVQSGAEVKKPGSSVKVSCKASGFTFGSYGINWVRQAPGQGLEWMGVIVPLVGVTIYAEKFQGRVTITADTSTSTAYMELSSLRSEDTAVYYCARGQEYFYWYFDLWGQGTLVTVSS VL: QSALTQPPSASGSPGQSVTISCSGSSSDIGGYNRVSWYQQHPGKAPKLMIYDVSKRPSGVPDRFSGSKSGNTASLTVSGLQAEDEADYYCSSYAGTDTFILFGGGTKLTVL | – | – | – | 0.0185 | – | – | EC50 (read off the curve) (human TSLP [7]): ~0.07 µg/mL; IC50, inhibition of human TSLP-induced Stat5 activation (Stat5-luciferase reporter, Ba/F3 cells with hTSLPR and hIL7Ra) (human TSLP [8]): 0.00463 µg/mL; EC50 (read off the curve) (cynomolgus monkey TSLP [9]): ~0.7 µg/mL; IC50 (TSLP-His): 0.351 µg/mL
12 | TSLP-0204 (antibody, V domains shown) VH: QVQLVQSGAEVKKPGSSVKVSCKASGFTFGSYGINWVRQAPGQGLEWLGVIVPLVGVTIYAEKFQGRVTITADTSTSTAYMELSSLRSEDTAVYYCARGQEYFYWYFDLWGQGTLVTVSS VL: QSALTQPPSASGSPGQSVTISCTGTSSDIGGYNRVSWYQQHPGKAPKLMIYEVNKRSSGVPDRFSGSKSGNTASLTVSGLQAEDEADYYCTSYAGTDTFVLFGGGTKLTVL | – | – | – | 0.0422 | – | 0.0189 | EC50 (read off the curve) (human TSLP [7]): ~0.1 µg/mL; EC50 (read off the curve) (cynomolgus monkey TSLP [9]): ~0.2 µg/mL; IC50 (TSLP-His): 0.428 µg/mL
13 | TSLP-0203 (antibody, V domains shown) VH: QVQLVQSGAEVKKPGSSVKVSCKASGFTFGSYGINWVRQAPGQGLEWLGVIVPLVGVTIYAEKFQGRVTITADTSTSTAYMELSSLRSEDTAVYYCARGQEYFYWYFDLWGQGTLVTVSS VL: QSALTQPPSASGSPGQSVTISCTGTSSDIGGYDRVSWYQQHPGKAPKLMIYGVSKRPSGVPDRFSGSKSGNTASLTVSGLQAEDEADYYCSSYASGHTFGLFGGGTKLTVL | – | – | – | 0.0363 | – | 0.0215 | EC50 (read off the curve) (human TSLP [7]): ~0.1 µg/mL; EC50 (read off the curve) (cynomolgus monkey TSLP [9]): ~0.3 µg/mL; IC50 (TSLP-His): 0.383 µg/mL
14 | TSLP-0207 (antibody, V domains shown) VH: QVQLVQSGAEVKKPGSSVKVSCKASGFTFGSYGISWVRQAPGQGLEWLGVIVPLVGVTIYAEKFQGRVTITADTSTSTAYMELSSLRSEDTAVYYCARGQEYFYWYFDLWGQGTLVTVSS VL: QSALTQPPSASGSPGQSVTISCTGTSSDIGGYNRVSWYQQHPGKAPKLMIYEFNKRPSGVPDRFSGSKSGNTASLTVSGLQAEDEADYYCSSYAGTDIFVLFGGGTKLTVL | – | – | – | 0.133 | – | 0.025 | EC50 (read off the curve) (human TSLP [10]): ~0.05 µg/mL
15 | TSLP-0208 (antibody, V domains shown) VH: QVQLVQSGAEVKKPGSSVKVSCKASGFTFGSYGISWVRQAPGQGLEWLGVIIPLLGVPNYAEKFQGRVTITADTSTSTAYMELSSLRSEDTAVYYCARGAEYFYWYFDLWGQGTLVTVSS VL: QSALTQPPSASGSPGQSVTISCTGSNSDIGGYNRVSWYQQHPGKAPKLMIYEISKRPSGVPDRFSGSKSGNTASLTVSGLQAEDEADYYCSSYAGTDTFVLFGGGTKLTVL | – | – | – | – | – | – | EC50 (read off the curve) (human TSLP [10]): ~0.1 µg/mL; EC50 (read off the curve) (cynomolgus monkey TSLP [11]): ~0.3 µg/mL
